From US20180244725

Molecular target: T1, R5 peptide
T1 chain: SSKKSGSYSGSKGSKRRIL

| Protein | propylamination of R5 (LC-MS time course) | myristoylation of R5 (LC-MS time course) |
| --- | --- | --- |
| Thermospermine synthase ACL5 (protein) MGEAVEVMFGNGFPEIHKATSPTQTLHSNQQDCHWYEETIDDDLKWSFALNSVLHQGTSEYQDIALLDTKRFGKVLVIDGKMQSAERDEFIYHECLIHPALLFHPNPKTVFIMGGGEGSAAREILKHTTIEKVVMCDIDQEVVDFCRRFLTVNSDAFCNKKLELVIKDAKAELEKREEKFDIIVGDLADPVEGGPCYQLYTKSFYQNILKPKLSPNGIFVTQAGPAGIFTHKEVFTSIYNTMKQVFKYVKAYTAHVPSFADTWGWVMASDHEFDVEVDEMDRRIEERVNGELMYLNAPSFVSAATLNKTISLALEKETEVYSEENARFIHGHGVAYRHI | the incorporation of one thermospermine molecule into R5 |  |
| N-myrisotyltransferase 1 (NMT1) (protein) MADESETAVKPPAPPLPQMMEGNGNGHEHCSDCENEEDNSYNRGGLSPANDTGAKKKKKKQKKKKEKGSETDSAQDQPVKMNSLPAERIQEIQKAIELFSVGQGPAKTMEEASKRSYQFWDTQPVPKLGEVVNTHGPVEPDKDNIRQEPYTLPQGFTWDALDLGDRGVLKELYTLLNENYVEDDDNMFRFDYSPEFLLWALRPPGWLPQWHCGVRVVSSRKLVGFISAIPANIHIYDTEKKMVEINFLCVHKKLRSKRVAPVLIREITRRVHLEGIFQAVYTAGVVLPKPVGTCRYWHRSLNPRKLIEVKFSHLSRNMTMQRTMKLYRLPETPKTAGLRPMETKDIPVVHQLLTRYLKQFHLTPVMSQEEVEHWFYPQENIIDTFVVENANGEVTDFLSFYTLPSTIMNHPTHKSLKAAYSFYNVHTQTPLLDLMSDALVLAKMKGFDVFNALDLMENKTFLEKLKFGIGDGNLQYYLYNWKCPSMGAEKVGLVLQ |  | A time course showing the incorporation of one myristoyl group was determined by LC-MS |
